Reference: paper PMC6681757

Experiments:
[1] = target: isolated bovine cardiac native thin filaments (NTFs) (bovine) (UniProt Q3ZC07); experiment: co-sedimentation; high-velocity cosedimentation with isolated bovine cardiac NTFs, absence of calcium (pCa 9)
[2] = target: myosin S2Δ, the first 126 amino acids of myosin S2 (cardiac myosin); experiment: MST; C1mC2 species (or native full-length cMyBP-C) titrated against myosin S2Δ; normalized MST curves; conditions in SI Appendix
[3] = target: isolated bovine cardiac native thin filaments (NTFs) (bovine) (UniProt Q3ZC07)
[4] = target: myosin S2Δ, the first 126 amino acids of myosin S2 (cardiac myosin)
[5] = target: isolated bovine cardiac native thin filaments (NTFs) (bovine) (UniProt Q3ZC07); experiment: co-sedimentation; high-velocity cosedimentation with isolated bovine cardiac NTFs, presence of 32 μmol/L CaCl2 (pCa 4.5)

| Substance | Kd [1] [µM] | Kd [2] [µM] | EC50 of activation of NTF-stimulated myosin S1 ATPase in the absence of calcium (pCa 9) [3] [μmol/L] | other results |
| --- | --- | --- | --- | --- |
| C1mC2 tris-phosphorylated by PKA on S288, S279 and S313 (C1mC2-3P) (domain or fragment) | 60 |  |  | Kd [5]: 60 µM |
| λ-protein phosphatase–treated native full-length cMyBP-C isolated from rat ventricular tissue (from UniProt P56741 1-1274) (natural protein) |  | 24.2 |  |  |
| C1mC2-S288A, unphosphorylated (domain or fragment) |  | 20 |  |  |

Continued, in another order:

| Kd [1] [µM] | Kd [2] [µM] | EC50 of activation of NTF-stimulated myosin S1 ATPase in the absence of calcium (pCa 9) [3] [μmol/L] | Substance | other results |
| --- | --- | --- | --- | --- |
| 20 | 30 |  | C1mC2 monophosphorylated on S308 by PKCε (domain or fragment) |  |
| 20 |  | 1 | C1mC2, recombinant fragment of rat cardiac myosin binding protein-C containing domains C1, the m-motif and C2, unphosphorylated (domain or fragment) | IC50 of inhibition of NTF-stimulated myosin S1 ATPase in the absence of calcium (pCa 9), [C1mC2] > 2 μmol/L [3]: 3 μmol/L; IC50 of inhibition of myosin S1-NTF ATPase during full calcium activation (pCa 4) [3]: 2 μmol/L; maximal inhibition of myosin S1-NTF ATPase during full calcium activation (pCa 4) [3]: 50%; EC50 of activation of thick filament structure (RLC BC probe orientation) in ventricular trabeculae, pCa 9 [4]: 10 μmol/L; KD of the high-affinity binding site [2]: 20.7 µmol/L; KD of the low-affinity binding site [2]: > 400 µmol/L |
| 20 | 30 | 2 | C1mC2 monophosphorylated on S288 (C1mC2-1P) (domain or fragment) |  |
| 20 |  | 5 | C1mC2 bis-phosphorylated by PKA on S288 and S279 (C1mC2-2P) (domain or fragment) |  |
